{
  "source": "patent US20110314564A1",
  "about": "“ENZYMES AND METHODS FOR HYDROLYSING PHENYLUREAS, CARBAMATES AND ORGANOPHOSPHATES” (priority 2008, published 2011)",
  "key": {"[1]": {"conditions": "neutral buffer; estimated from the work of Salvestrini et al. (2002); cited from earlier work"}, "[2]": {"test_system": "Mycobacterium brisbanense strain JK1", "test": "Degradation of diuron and accumulation of DCA in liquid culture", "format": "cell-based", "conditions": "alternate nitrogen source present", "method": "MM (50 mL) supplemented with 10 mM glucose, 0.13 mM diuron and 18.7 mM ammonium chloride (as required) were inoculated with 0.2% of a homogeneous suspension of freshly grown M. brisbanense strain JK1 cells (0D600=˜10). Cultures were incubated at 28° C. with shaking at 200 rpm, in the dark. Samples were taken at ˜24 hour intervals, and metabolites were extracted in 50% acetonitrile, filtered and analysed by HPLC."}, "PuhB": {"molecular_target": "PuhB (Mycolicibacterium brisbanense, UniProt B8R4K0)", "test": "Hydrolysis of phenylurea, carbamate and organophosphate substrates by purified PuhB (LCMS / FBBS / A400 assays)", "conditions": "PuhB"}, "[3]": {"test": "Activity of PuhA and PuhB expressed in M. smegmatis at each purification step (PNP release)", "format": "biochemical", "method": "(§1) Pwo polymerase (Roche) and restriction enzymes NdeI, BamHI and HindIII (Fermentas) were used following manufacturers' protocols. Electro-competent E. coli strains JM109 (Promega) were utilised for transformation of ligation reactions (using Promega ligase). Protein expressions in E. coli were inoculated (1% v/v) with an overnight seed culture in LB and then incubated with shaking at 20° C. for 11 hours followed by induction with 0.1 mM isopropyl-β-D-thiogalactopyranoside (IPTG) for 3 hours. M. smegmatis expressions were amended with 0.05% tween 80 and grown in LB at 28° C. for 2-4 days with no induction. Clarified cell-free extracts were obtained by resuspending the bacteria in 25 mM Tris (pH 8) followed by 3 passes through a French pressure cell (Thermo) and centrifugation at 27,000 g (Beckman Avanti).\n(§2) Protein concentration was estimated using the Bio-rad protein assay (Bradford), with bovine serum albumin used as standard. Protein purity was monitored using sodium dodecyl sulphate-polyacrylamide gel electrophoresis (SDS-PAGE) stained with Coomassie brilliant blue. Where PuhA and B concentrations were estimated in semi purified extracts, SDS-PAGE gels were scanned using Labscan v5 (Amersham Biosciences) and band densitometry performed with Total lab TL100 (Nonlinear dynamics). Talon cobalt resin (BD Biosciences) was used for the purification of hexa-histidine tagged protein. Untagged protein was purified by ammonium sulfate (AS) precipitiation followed by hydrophobic interaction chromatography (HIC; Phenylsepharose), anion exchange chromatography (AEX; Macro Q) and size exclusion chromatography (SEC; Superose 6 or Sephadex 200). All columns were purchased from GE Healthcare. The hydrophobic interaction column was equilibrated with Tris (pH 8)/1 M ammonium sulfate and bound protein was then eluted with Tris (pH 8) over 400 mL. Protein was bound to the anion exchange column with Tris (pH 8) and eluted with a gradient of Tris (pH 8)/1 M NaCl over 500 mL. The buffer was exchanged to 25 mM HEPES/50 mM KCl (pH 8) during SEC and the protein was stable in this buffer at 4° C. for several weeks. The oligomeric structure was estimated with a Superose 6 size exclusion column calibrated with the following protein standards (kDa): thyroglobulin (669), ferritin (440), catalase (232) and aldolase (158). Standard tryptic peptide mass fingerprinting was used to confirm the identity of proteins excised from polyacrylamide gels by liquid chromatography electro spray ionisation mass spectroscopy/mass spectroscopy (LC ESI MS/MS) ion trap following the method of Campbell et al. (2008)."}, "[4]": {"test": "Activity of native PuhA and PuhB at each purification step (DCA formation)", "format": "biochemical", "excerpt": "as §2"}, "[5]": {"test": "Stability in the presence of the solvents acetonitrile and methanol", "format": "biochemical", "conditions": "1-18% v/v solvent", "method": "(§3) The influence of solvents (acetonitrile and methanol) was examined by using 7 concentrations from 0.4-18.2% over 1 hour duplicate assays with 77 μM diuron and monitored by LCMS. The effect of temperature on the activity of the enzymes was determined in two ways: firstly, the temperature at which reaction was catalysed was controlled at 12 temperatures ranging from 2-60° C. with 154 μM diuron; secondly, enzyme was preincubated at 6 temperatures from 30-55° C. for 10 minutes prior to 1 hour assays at 25° C. The residual activity data was obtained by LCMS and fitted to the Boltzmann function (eq 1)"}, "[6]": {"test": "Diuron hydrolase activity in the soluble fraction of recombinant expression hosts", "format": "biochemical", "excerpt": "PuhA and PuhB were amplified as N-hexa-histidine tagged fusions from pET14b (Novagen) in E. coli rosetta II cells (Novagen) and pMV261 (Stover et al., 1991) in M. smegmatis mc2. Protein without hexa-histidine tags was later expressed in M. smegmatis mc2. The PCR primers used in these cloning procedures are noted in Table 2 (SEQ ID NOs 5 to 13).\nas §1"}, "[7]": {"test": "Bronsted plots (pKa of leaving group vs log kcat) for N-dimethyl phenylureas", "format": "biochemical", "conditions": "slope between pKa 4-5", "excerpt": "(§4) was used to fit an activity y, either log(kcat) and log(kcat/Km) vs. pH. (y)^max is the plateau value and pKa^1 and pKa^2 are the apparent pKa values for the acidic and basic groups, respectively. Equations were fitted to the data using Kaleidagraph v3.6 (Synergy Software). The substrate pKa values were obtained via an online database www.syrres.com/esc/physdemo.htm (Syracuse Research Corporation)."}, "[8]": {"test": "Thermal stability: residual activity after 10 minutes pre-incubation, Boltzmann fit", "format": "biochemical", "method": "as §3\n(§5) A bell shaped model (eq 2)"}, "[9]": {"test": "pH dependence of kcat, kcat/Km and Km with diuron in constant ionic strength buffer", "format": "biochemical", "excerpt": "as §5, §4"}},
  "data": [
    {"molecule": "CN(C)C(=O)Nc1ccc(Cl)c(Cl)c1", "note": "[diuron, N′-3,4-dichlorophenyl N-dimethylurea]", "values": [
      {"measurement": "knon", "setting": "[1]", "result": "2.8e-10", "unit": "s⁻¹"},
      {"measurement": "degradation of diuron (loss of diuron, accumulation of DCA)", "setting": "[2]", "result": "degradation of diuron was confirmed"},
      {"measurement": "kcat", "setting": "PuhB", "result": 0.48, "unit": "s⁻¹"},
      {"measurement": "rate enhancement kcat/knon", "setting": "PuhB; diuron", "result": "1.7×10^9"}
    ]},
    {"molecule": "PuhB: phenylurea hydrolase from Mycobacterium brisbanense JK1, amino acid sequence SEQ ID NO:1 (protein, Mycobacterium brisbanense JK1) MSTIAITNVTLIDGLGGLPRPATTVIVEGDRFATVGPSDSTPVPEGATVVDGNRRWMVPGYVNGNVHLLDAWMFMAGPGTIEYLARWEGRYVEVIEEAAQLALRNGVTTVFDTHNAIEPVLAARDRINAGISQGARIFAAGTIVGMGGPFSADFHFAGRTAATRTFVDRIDSMFEAGVGHQLSLLPRKEVRARVRDYLSRGVDMLKIAVSDHIVFTLVDRSVGFDRSYQTFSRPVLEVMVEEARAAGVPVLTHSVSVEALDTSVELGADVLIHANYTLGQEIPNYLIDKIVASDSWAGLQTVHDQHRQGLEDVGSWAAALAGEPYATNERNLISANAKILLNTDAGCPSKDHLADLSPVEREDRPWTIGNDHFHWTQSMVEKGMSPLEAISAATINVARAYGKADQIGSVETGKLADFVLLDQDPVDDIRNLRSITEVFQAGAAVDRAALPTTPLVTAHPA", "values": [
      {"measurement": "Activity (mM PNP/mg/min)", "setting": "[3]; AEX", "result": 3.9, "unit": "mM PNP/mg/min"},
      {"measurement": "Activity (mM PNP/mg/min)", "setting": "[3]; CFE", "result": 0.1, "unit": "mM PNP/mg/min"},
      {"measurement": "Activity (mM PNP/mg/min)", "setting": "[3]; HIC", "result": 1.4, "unit": "mM PNP/mg/min"},
      {"measurement": "Activity (mM PNP/mg/min)", "setting": "[3]; SEC", "result": 4.3, "unit": "mM PNP/mg/min"},
      {"measurement": "Activity (nmol DCA/μg/hour)", "setting": "[4]; AS (ammonium sulfate)", "result": 0.24, "unit": "nmol DCA/μg/hour"},
      {"measurement": "Activity (nmol DCA/μg/hour)", "setting": "[4]; CFE (cell free extract)", "result": 0.05, "unit": "nmol DCA/μg/hour"},
      {"measurement": "Activity (nmol DCA/μg/hour)", "setting": "[4]; HIC", "result": 0.24, "unit": "nmol DCA/μg/hour"},
      {"measurement": "Activity (nmol DCA/μg/hour)", "setting": "[4]; SEC", "result": 0.04, "unit": "nmol DCA/μg/hour"},
      {"measurement": "activity in the presence of methanol and acetonitrile (in words)", "setting": "[5]", "result": "significantly inhibited"},
      {"measurement": "activity in the soluble fraction (in words)", "setting": "[6]; expressed in E. coli Rosetta 2 DE3 from pET14b", "result": "no activity was detected"},
      {"measurement": "activity in the soluble fraction (in words)", "setting": "[6]; expressed in M. smegmatis from pMV261", "result": "displayed diuron hydrolase activity"},
      {"measurement": "βlg", "setting": "[7]", "result": "−1.1"},
      {"measurement": "residual activity after incubation (in words)", "setting": "[8]; 10 minutes incubation at 40° C.", "result": "retaining significant activity"},
      {"measurement": "Tm indicating 50% activity retained", "setting": "[8]; 10 minutes pre-incubation, then 1 hour assay at 25° C.", "result": 46.0, "unit": "°C"},
      {"measurement": "pKe1", "setting": "[9]; acidic shoulder", "result": 5.0},
      {"measurement": "pKes1", "setting": "[9]; acidic shoulder", "result": 5.0},
      {"measurement": "pKe2", "setting": "[9]; basic shoulder", "result": 9.6},
      {"measurement": "pKes2", "setting": "[9]; basic shoulder", "result": 10.6},
      {"measurement": "pKe of the decrease in catalytic efficiency", "setting": "[9]; basic side", "result": "~10"}
    ]}
  ]
}
